Assay [1] concerns the target FAM19A5 antigen (Homo sapiens, UniProt Q7Z5A7). The experiment in a line: Cross-competition two-site sandwich ELISA. The class given is binding. To be noted: antibodies 1-65, P2-A03, P2-F11, 13B4, 2-13, 3-2; cross-competition = S/N ratio lower than 2. The protocol: The term “S/N” refers to the signal to noise ratio, which is measured as follows: [O.D. of 10 ng/ml antigen]/[O.D. of 0 ng/ml antigen].
Next, a two-site sandwich ELISA was used as described below to assess whether the different anti-FAM19A5 antibodies with similar binding epitopes cross-compete with each other.
First, the indicated anti-FAM19A5 antibodies were diluted in 1×PBS to a concentration of 10 μg/mL. The diluted anti-FAM19A5 antibodies (10 μg/mL in 1×PBS) (“capture antibody”) were used to coat the 96-well plates (100 μL/well) at 37° C. for approximately 1 hour. After the incubation, the plates were washed with the washing buffer (0.01% Tween-20/PBS; also called 0.01% PBST) for a total of five washes, blocked with the blocking solution (5% BSA/PBS; also called 5% PBSA) (250 μL/well) for one hour at 37° C., and then washed again. Next, 100 μg/mL of the FAM19A5 antigen (diluted in PBS containing 5% BSA, 0.01% Tween-20; also called 5% PBSAT; “diluent buffer) was added to each of the wells, and the 96-well plates were incubated for 2 hours at 37° C. After the incubations, the plates were washed using 0.01% PBST for a total of five washes. After the final wash, the indicated biotinylated anti-FAM19A5 antibodies (“detection antibody”) (diluted to lug/mL in 5% PBSAT) were added to the relevant wells (100 μL volume) and the plates were incubated for an additional 1 hour at 37° C. Afterwards, the plates were washed again with 0.01% PBST (five total washes). Next, 100 μL of the diluted (1/2000 in 5% PBSAT) Streptavidin-HRP (1 mg/mL, Sigma, USA) was added to the wells, and the plates were incubated for 30 minutes at room temperature. The plates were then washed and treated with 100 μL of the TMB substrate ([…], Thermo Fisher Scientific). After an additional 30-minute incubation at room temperature, the color change reaction was induced by the addition of the TMB substrate. This reaction was stopped using 50 μL of sulfuric acid (2N H2SO4), and the extent of color change was detected via absorption at 450 nm with reference wavelength at 620 nm using a 96 well microplate reader (Molecular Device).
(In general: An ELISA detects its analyte on a solid surface through an enzyme-linked reagent.)

Assay [2] has as its system noise-induced hearing loss mouse model. Nature of the assay: Noise-induced hearing loss mouse model, first antibody dose one day prior to noise exposure. The class given is in vivo. Here is the method:
FIGS. 6A, 6B, 6C, 6D, and 6E show the therapeutic effect of FAM19A5 antagonists on auditory brainstem response (ABR) threshold in a noise-induced hearing loss mouse model. FIG. 6A provides a schematic of the experimental design. As shown, anti-FAM19A5 antibody (1-30) or control human IgG antibody was administered to the mice intravenously once a week (30 mg/kg per dose) for a total of five administrations. The first dose of the antibodies was administered one day before noise exposure. For noise-induced hearing loss induction, the animals were subjected to temporary threshold shift (TTS) of 105 decibels for 30 minutes. ABR (i.e., hearing test) was measured both prior to the initial administration of the antibodies and then at various times after administration. FIGS. 6B, 6C, 6D, and 6E provide comparison of ABR threshold between mice administered with the control human IgG (circle), anti-FAM19A5 antibody (square), or before noise (triangle) at the following time points: (i) before TTS exposure, (ii) 1 day after TTS exposure, (iii) 2 weeks after TTS exposure, (iv) 4 weeks after TTS exposure, and […], respectively. ABR threshold was measured at a frequency ranging from 4 kHz to 64 kHz.
FIGS. 7A, 7B, 7C, and 7D show the therapeutic effect of FAM19A5 antagonists on distortion product […] emission (DPOAE) threshold in a noise-induced hearing loss mouse model. The overall experimental design is the same as that described in FIG. 6A. DPOAE threshold data was measured after antibody administration and: (i) before TTS exposure (FIG. 7A), (ii) 1 day after TTS exposure (FIG. 7B), (iii) 2 weeks after TTS exposure (FIG. 7C), and (iv) 4 weeks after TTS exposure (FIG. 7D). DPOAE threshold was measured at a frequency ranging between about 4 kHz to about 32 kHz.
FIGS. 8A and 8B show the effect of FAM19A5 antagonists on distortion product […] emission (DPOAE) amplitude in a noise-induced hearing loss mouse model. The overall experimental design is the same as that described in FIG. 6A. DPOAE amplitude data was measured after antibody administration at 2 weeks after TTS exposure. FIG. 8A provides a comparison of the average DPOAE amplitude value as a function of different noise level for the following groups: (i) before noise (triangle), (ii) control antibody treated (circle), and (iii) anti-FAM19A5 treated (square). FIG. 8B provides a spectral level profile for each of the groups.
FIGS. 11A and 11B show the effect of FAM19A5 antagonists on ABR I/O function in a noise-induced hearing loss mouse model. The overall experimental design is the same as that described in FIG. 6A. FIG. 11A provides wave I amplitude before noise (left graph) and at 2 weeks after noise (right graph).
FIG. 11B provides wave I amplitude at 4 weeks after noise. For each of FIGS. 11A and 11B, the following groups of animals are shown: (i) control antibody treated (circle) and (ii) anti-FAM19A5 antibody treated (square). For comparison purposes, wave I amplitude before noise exposure is also provided at the 2 weeks and 4 weeks timepoints (“BN”).
FIGS. 12A and 12B provide immunohistochemistry (IHC) analysis of the therapeutic effects of anti-FAM19A5 antibody (1-30) and control human IgG antibody administration in the middle cochlear region 8 weeks after temporary threshold shift (TTS) (i.e., noise induction).
To assess whether the FAM19A5 antagonists described herein can treat hearing loss, a noise-induced hearing loss mouse model was used. Briefly, for hearing loss induction, the animals were exposed to a temporary threshold shift (TTS) of 105 decibels for 30 minutes. An anti-FAM19A5 antibody (1-30 antibody) or a control human IgG antibody was intravenously administered to C57BL/6 mice (8 weeks old) once weekly for 5 total administrations (30 mg/kg per dose). […] To assess the effect on hearing loss, ABR threshold, DPOAE threshold, and/or DPOAE amplitude were measured at various time points (see “hearing test” in FIG. 6A). […]

2 molecules from patent US20260265360A1, “USE OF ANTI-FAM19A5 ANTAGONISTS FOR TREATING HEARING DISORDERS” (NEURACLE SCIENCE CO., LTD., priority 2023, published 2026) can be followed below.

FAM19A5 antigen, sequence (Q7Z5A7 44-132): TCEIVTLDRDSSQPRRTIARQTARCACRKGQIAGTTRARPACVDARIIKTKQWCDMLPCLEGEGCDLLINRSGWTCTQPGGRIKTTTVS

B1: 2-13: anti-FAM19A5 antibody; VH SEQ ID NO: 35, VL SEQ ID NO: 39 (antibody, V domains shown)
VH: AVTLDESGGGLQTPGGALSLVCKASGFTFSSHGMFWVRQTPGKGLEYVAEITNDGSGTNYGSAVKGRATISRDNGQSTVRLQLNNLRAEDTGTYFCARSTYECPGGFSCWGDTGQIDAWGHGTEVIVSS
VL: ALTQPSSVSANPGETVKITCSGGSYSYGWFQQKSPGSALVTVIYWDDERPSDIPSRFSGALSGSTNTLTITGVQADDEAVYFCGTEDISGTAGVFGAGTTLTVL
modifications: 2-13 VH; 2-13 VL
As to B1, the “cross-competition with the other anti-FAM19A5 antibodies” value in assay [1] was “did not cross-compete”.

B2: 1-30: anti-FAM19A5 antibody, de-immunized variant of 3-2; VH SEQ ID NO: 235, VL SEQ ID NO: 240 (antibody, V domains shown)
VH: AVTLDESGGGLQTPGGALRLSCKASGFDFESFNMFWVRQAPGKGLEYVSQISSSEEDENYAPAVKGRATISRDNGQSTLYLQMNSLRAEDTGTYYCAKSSYDCPYGHCSSGVDSAGEIDAWGHGTEVIVSS
VL: ALTQPSSVSANPGETVKITCSGGGSEEEQYYYGWYQQKPGSAPVTLIYQDEERPSDIPSRFSGSTSGSTATLTITGVQAGDEADYYCGSWDSEDEDHFGAGTTLTVL
modifications: Low-PI VH, 1-30 VH, 1-17 VH, 1-32 VH, 4-11 VH, 6-10 VH; 1-30 VL
Consider B2, for which, in assay [2] (2 weeks after TTS exposure, about 18 kHz frequency), the “DPOAE amplitude vs control antibody” value is “higher DPOAE amplitude”. Moreover, the “number of ribbon bodies per cell in IHC and OHC vs hIgG” value in assay [2] (8 weeks after TTS) is recorded as “increased number of ribbon bodies per cell”. Moreover, the “ABR threshold values vs values prior to TTS exposure” value in assay [2] (all time points assessed after TTS, 30 mg/kg i.v. weekly x5, first dose one day before noise) is “comparable to corresponding values prior to the TTS exposure”. In addition, the “DPOAE threshold values vs control IgG antibody” value in assay [2] (before and 1 day, 2 weeks, 4 weeks after TTS, 30 mg/kg i.v. weekly) is given as “no noticeable differences”. In addition, in assay [2] (day 1 post TTS (105 dB, 30 min), 30 mg/kg i.v. weekly x5, first dose one day before noise), the “increase in ABR threshold after TTS exposure, vs control antibody” value is on record as “much more dramatic in animals treated with the control antibody”. Further, the “ABR wave I amplitude vs control antibody” value in assay [2] (four weeks post noise exposure) and in assay [2] (two weeks post noise exposure) was “noticeable differences were observed” in each case. For the same molecule, the “expression of CtBP2 (cochlear ribbon synapse marker) in the IHC vs control antibody” value in assay [2] (middle cochlear region, 8 weeks after TTS) is given as “noticeable increase”.
